Measured values as given in PMC3027643.

Biological target: mISCU/mNFS1/mISD11 complex (mouse) (UniProt Q9D7P6)
Test: native MS; ESI native mass spectrometry of the quaternary complexes after gel filtration, 50 mM ammonium acetate; masses of the GST-mFXN and the mFXN-HIS complex compared

UniProt Q9D7P6, sequence (Q9D7P6 36-168, chain 1 of 3): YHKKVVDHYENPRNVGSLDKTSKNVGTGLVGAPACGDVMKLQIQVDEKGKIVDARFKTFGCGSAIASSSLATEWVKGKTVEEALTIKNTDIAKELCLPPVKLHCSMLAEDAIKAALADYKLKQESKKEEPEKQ
UniProt Q9D7P6, sequence (Q9Z1J3 18-459, chain 2 of 3, further chain): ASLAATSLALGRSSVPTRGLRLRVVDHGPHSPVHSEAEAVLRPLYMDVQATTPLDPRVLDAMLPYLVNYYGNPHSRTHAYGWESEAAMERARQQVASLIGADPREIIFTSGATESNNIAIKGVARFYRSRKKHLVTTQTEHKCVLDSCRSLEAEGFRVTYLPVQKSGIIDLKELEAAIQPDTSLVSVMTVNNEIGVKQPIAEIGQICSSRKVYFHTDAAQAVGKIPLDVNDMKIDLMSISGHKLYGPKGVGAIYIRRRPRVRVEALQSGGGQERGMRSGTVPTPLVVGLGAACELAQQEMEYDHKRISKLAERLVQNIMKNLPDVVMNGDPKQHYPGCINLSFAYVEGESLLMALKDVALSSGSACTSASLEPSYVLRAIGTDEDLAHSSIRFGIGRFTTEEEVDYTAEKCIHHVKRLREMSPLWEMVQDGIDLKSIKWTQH
UniProt Q9D7P6, sequence (Q8K215 whole entry, chain 3 of 3, further chain): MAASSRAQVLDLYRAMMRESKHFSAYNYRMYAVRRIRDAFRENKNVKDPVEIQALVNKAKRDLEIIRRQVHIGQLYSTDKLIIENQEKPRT

## mFXN-HIS (natural protein)
  stoichiometry N: 2
